From paper PMC5984536

Molecular target: actin filaments (F-actin) assembled in vitro from DyLight-labeled actin and biotinylated actin (UniProt P68135)
Assay: TIRF microscopy of cofilin-EGFP on single actin filaments

Substance: cofilin-EGFP (recombinant mouse cofilin tagged on its C terminus) (from UniProt P18760 1-166) (natural protein)
- average density of cofilin on stuck F-actin against that on mDia1(−) F-actin: 35 % lower
